Measurements reported in US20030092631A1 (Genentech, published 2003).

B1: STYSCIRDMGWAVYCWETTL (peptide)
chain: STYSCIRDMGWAVYCWETTLGGGSGGGAEGDDPAKAAFNSLQASATEYIGYAWAMVVVIVGATIGIKLFKKFTSKAS
notes: naive clone; polyvalent P8 display on phage; STII signal left out
B2: LSSEECWEALKWQGCLMSER (peptide)
chain: LSSEECWEALKWQGCLMSERGGGSGGGAEGDDPAKAAFNSLQASATEYIGYAWAMVVVIVGATIGIKLFKKFTSKAS
notes: as for B1
B3: SFCEFNDWWPTCLV (peptide)
chain: SFCEFNDWWPTCLVGGGSGGGAEGDDPAKAAFNSLQASATEYIGYAWAMVVVIVGATIGIKLFKKFTSKAS
notes: as for B1
B4: VKDECLMSVEALKNCMGLVS (peptide)
chain: VKDECLMSVEALKNCMGLVSGGGSGGGAEGDDPAKAAFNSLQASATEYIGYAWAMVVVIVGATIGIKLFKKFTSKAS
notes: as for B1
B5: GESTCVTDLERVEYCWDEKS (peptide)
chain: GESTCVTDLERVEYCWDEKSGGGSGGGAEGDDPAKAAFNSLQASATEYIGYAWAMVVVIVGATIGIKLFKKFTSKAS
notes: as for B1
B6: EVARCVVDAGGTWYCWAEMA (peptide)
chain: EVARCVVDAGGTWYCWAEMAGGGSGGGAEGDDPAKAAFNSLQASATEYIGYAWAMVVVIVGATIGIKLFKKFTSKAS
notes: as for B1
B7: GVETCYSDAMNTQYCWTTEL (peptide)
chain: GVETCYSDAMNTQYCWTTELGGGSGGGAEGDDPAKAAFNSLQASATEYIGYAWAMVVVIVGATIGIKLFKKFTSKAS
notes: as for B1
B8: HPDKCFADVRALQECMESVR (peptide)
chain: HPDKCFADVRALQECMESVRGGGSGGGAEGDDPAKAAFNSLQASATEYIGYAWAMVVVIVGATIGIKLFKKFTSKAS
notes: as for B1
B9: SGTACRWGPSWLLCSLAGSP (peptide)
chain: SGTACRWGPSWLLCSLAGSPGGGSGGGAEGDDPAKAAFNSLQASATEYIGYAWAMVVVIVGATIGIKLFKKFTSKAS
notes: as for B1
B10: REVKCMKDLSGHEYCWAEPR (peptide)
chain: REVKCMKDLSGHEYCWAEPRGGGSGGGAEGDDPAKAAFNSLQASATEYIGYAWAMVVVIVGATIGIKLFKKFTSKAS
notes: as for B1
B11: VEEKCYESITALRHCMQAMQ (peptide)
chain: VEEKCYESITALRHCMQAMQGGGSGGGAEGDDPAKAAFNSLQASATEYIGYAWAMVVVIVGATIGIKLFKKFTSKAS
notes: as for B1
B12: EAGAESRGWLQARCGELLGV (peptide)
chain: EAGAESRGWLQARCGELLGVGGGSGGGAEGDDPAKAAFNSLQASATEYIGYAWAMVVVIVGATIGIKLFKKFTSKAS
notes: as for B1
B13: GEGPECDLRQWGNLCGHWET (peptide)
chain: GEGPECDLRQWGNLCGHWETGGGSGGGAEGDDPAKAAFNSLQASATEYIGYAWAMVVVIVGATIGIKLFKKFTSKAS
notes: as for B1
B14: VESECLLSLPNLRRCMMDRL (peptide)
chain: VESECLLSLPNLRRCMMDRLGGGSGGGAEGDDPAKAAFNSLQASATEYIGYAWAMVVVIVGATIGIKLFKKFTSKAS
notes: as for B1

What was measured:
IGF-1 = target: T1, IGF-1 (human, UniProt P05019 49-118); test: phage ELISA, IGF-1 on plate
T1 construct: mature; also called insulin-like growth factor-1; rhIGF-1
Description: (§1) From each round, individual peptide-displaying phage were isolated and analyzed for binding to IGF-1 in a phage ELISA by capturing the peptide-phage with IGF-1 immobilized on a plate, and detecting bound phage (see below). As a control for non-specific binding, the phage were also analyzed in a phage ELISA that used plates coated with BSA. […]
(§2) MAXISORP™ immunoplates (96-well) were coated with capture target protein for 2 hours at room temperature (100 μL at 5 μg/mL in 50 mM carbonate buffer, pH 9.6). The plates were then blocked for 1 h with 0.2% BSA in phosphate-buffered saline (PBS) and washed eight times with PBS, 0.05% TWEEN®-20 detergent. Phage particles were serially diluted into BSA blocking buffer and 100 μL were transferred to coated wells. After I h, plates were washed eight times with PBS, 0.05% TWEEN®-20 detergent, incubated with 100 μL of 1:3000 horse radish peroxidase/anti-M 13 antibody conjugate in BSA blocking buffer for 30 min. and then washed eight times with PBS, 0.05% TWEEN®-20 detergent and two times with PBS. Plates were developed using a tetramethylbenzidine substrate (TMB, Kirkegaard and Perry, Gaithersburg, Md.), stopped with 1.0 M H3PO₄, and read spectrophotometrically at 450 nm.

BSA = BSA (UniProt P02769 25-607); test: phage ELISA, BSA on plate
Description: as §1, §2

BSA, sequence (P02769 25-607 limits assumed): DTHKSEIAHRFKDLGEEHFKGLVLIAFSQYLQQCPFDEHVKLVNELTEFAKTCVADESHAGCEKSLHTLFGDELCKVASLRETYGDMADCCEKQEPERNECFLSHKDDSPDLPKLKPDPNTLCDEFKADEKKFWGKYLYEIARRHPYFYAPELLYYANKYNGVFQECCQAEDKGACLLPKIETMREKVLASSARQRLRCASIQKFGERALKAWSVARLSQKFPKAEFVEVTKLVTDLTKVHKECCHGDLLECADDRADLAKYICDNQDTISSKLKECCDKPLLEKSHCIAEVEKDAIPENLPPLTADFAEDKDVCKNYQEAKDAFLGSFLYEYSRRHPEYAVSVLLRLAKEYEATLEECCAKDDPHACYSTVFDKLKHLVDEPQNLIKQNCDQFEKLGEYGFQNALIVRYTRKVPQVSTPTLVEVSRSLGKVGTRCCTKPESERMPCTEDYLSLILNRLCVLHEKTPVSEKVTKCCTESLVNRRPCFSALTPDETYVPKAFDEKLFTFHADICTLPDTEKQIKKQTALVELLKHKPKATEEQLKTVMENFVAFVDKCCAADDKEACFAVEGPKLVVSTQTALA
T1 sequence (P05019 49-118): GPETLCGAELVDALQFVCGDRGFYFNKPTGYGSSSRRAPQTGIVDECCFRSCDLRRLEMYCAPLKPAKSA

Binder | binding result (IGF-1) | binding result (BSA)
B1 | binds | no binding
B2 | binds | no binding
B3 | binds | no binding
B4 | binds | no binding
B5 | binds | no binding
B6 | binds | no binding
B7 | binds | no binding
B8 | binds | no binding
B9 | binds | no binding
B10 | binds | no binding
B11 | binds | no binding
B12 | binds | no binding
B13 | binds | no binding
B14 | binds | no binding
